From the nanobody polyreactivity screen of Harvey et al. (2022)

Assay: yeast display, Sf9 membrane polyspecificity reagent, FACS + sequencing; frameworks hold sequencing errors
Outline: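 Sorting gates, low and high (top ~1%), were placed on anti-HA fluorescence to track expression and on streptavidin fluorescence to track reagent binding. A clone's polyreactivity label is taken from the gate it came out of. The reagent was 10% biotinylated, detergent-solubilized Sf9 membrane, applied for 1 hour at 4 °C to galactose-induced yeast display cells.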

| Sequence | polyreactivity (PSR sort gate) |
| --- | --- |
| QVQHVESGGGLVQAGGSLRLSCAASGRIFSINVMGWYRHAPGKERELVAAISKLGGSTYYADSVKGRFTISRDNAKNTVYLQMNSLKPEDTAVYYCAARRHYTYGNGPSRGGQMDYWGQGTQVTVSS | high polyreactivity |
| QVQLVESGGGLVQAGGSLRLSCAASGFIFGHYAMGWYRPAPGKERELVAGINSSGGSTHYADSVKGRFTISRDNAKNTVYLQMNSLKPEDTAVYYCAADVYRYYAGSRYYYWGQGTQVTVSS | low polyreactivity |
| QVQLVESGGGLVQAGGSLRLSCAASGRIFPYYDMGWYREAPGKERELVAAITWNGGSTYYADSVKGRFTISRDNAKNTVYLQMNSLKPADTAVYYCAVEPYYYGEDYWGQGTQVTVSS | low polyreactivity |
| QVQLVESGGGLVQAGGSLRLSCAASGRIFGYNAMGWYRQAPGKERELVAAIRRRGGTTYYADSVKGRFTISRDNAKNTVYLQMNSLKPEDTAVYYCNTKYPGRGYYWGQGTQVTVSS | high polyreactivity |
| QVQLVESGGGLVQAGGSLRLSCAPSGFSFRQYAMGWYRQAPGKERELVAAISSSGGRTYYADSVKGRCTISRDNAKNTVYLQMNSLKPEDSAVYYCNARAWLRGEYGEGYWGQGTQVTVSS | high polyreactivity |
| QVQLVESGGGLVQAGGSLRLSCAASGRIFIYNAMGWYRQAPGKEREFVAAISSSGGSTYYADSVKGRFTISRDNAKNTVYLQMNSLKPEDTAVYYCAAGGWPYSGGWFFQPNYDYWGQGTQVTVSS | low polyreactivity |
| QVQLVESGGGLVQAGGILRLSCAASGSIFQTNAMGWYRPAPGKERELVAAISQRGGRTYYADSVKGRFTISRDYAKNTVYLHLKSLKPEDTAVYYGAATQSQRVHAARYGYWGQGSQVTVSS | high polyreactivity |
| QVQLVESGGGLVQAGGSLRLSCAASGTTFPAYAMGWYRQAPGKERELVAVINLSGSTYYADSVKGRFTISRDNAKNTVYLQMNSLKPEDTAVYYCNARQYDYYRYGYWGQGTQVTVSS | low polyreactivity |
| QVQLVESGGGLVQAGGSLRLSCAASGLIFYTYAMGWYRQAPGNERELVADINRSDGSTYYADSVKGRFTISRDNAKNTVYLQMNSLKPEDTAVYYCAVVGPYYSRFGGRYYYWGQGTQVTVSS | low polyreactivity |
| QVQLVDSGGGLVQAGGSLRLSCAASGFIFIFYTMGWYRQAPGNERELVAAISRSGGSTYYADSVKGRFTISRDNAKNTVYLQMNSLKPEDTAVYYCAARAKLSHRWRSYYWGQGTQVTVSS | high polyreactivity |
| QVQLVDSGGGLVQAGGSLRLSCAASGLIFSQYAMGWYRQAPGKEREFVARISSSGGSTYYADSVKGRFTISRDNAKNTVYLQMNSLKPEDTAVYYCAAVGGRNIRVWFRNKYDSWGQGTQVTVSS | low polyreactivity |
| QVQLVESGGRIVQAGGSLRLSCDASGSTIFGNGMGWYRQAPGKERELVAAISGGGSTHYADSVKGRFTISRDNAKNTVYLQMNSVKPEDTAVYYCSPSRDTDGRGPIQRDFWGQGTQVTVSS | low polyreactivity |
| QVQLVESGGGLVQAGRSLRLSCAASGYIIYPNAMGWYRQAPGKERELVAAITSGGSTTYADSVKGRFTISRDNAKNTVYVQMNCLKPEDSAVYYCAARFVLWSRTYYSWGQGTQVTVSS | high polyreactivity |
| QVQLVESGGGLVQAGGSLRLSCAASGSIFNYYAMGWYRQEPGKERELVAAISSGGSTYYADSVKGRFTISRDNAKNTVYLQMNSLKPEDTAVYYCAVDSPYLDEYDYWGQGTQVTVSS | high polyreactivity |
| QVKLVESGGGLVQAGGSLRLSCAASGRTFYINAMGWYRQAPGKERELVAAISRVGSTNYADSVKGRFTISRDNAKNTVYLQMNSLKPEDTEVYYCAARSRGGRRYYYWGQGSQVTVSS | high polyreactivity |
| QVQLVESGGGLVQAGGSLRLSCAASGIILGPYAMGWYRQAPGKERELVAAISWRGGSTYYADSVKGRFTISRDNAKNTVYLQMNSLKPEDTAVYYCATASRTSRTGWAGYYWGQGTQVTVSS | high polyreactivity |

| Sequence | polyreactivity (PSR sort gate) |
| --- | --- |
| QVQLVESGGGLVQAGGSLSLSCAASGRTLYVYTMGWYRQAPGKERELVASISSGVGTNYADSVKGRFTISRDNAKNTDYLQMNSLKPEDTAVYYCAARFRYYRHYYWGQGTQVTVSS | high polyreactivity |
| QVQLVESGGGLVQAGGSLRLSCAASGSTFVSNTMGWYRQAPGKERELVAAITWGGGGTYYADSVKGRFTISRDNAKNTVYLQMNSLKPEDTAVYYCAAKVQGGYYDYDYWGQGTQVTVSS | low polyreactivity |
| QVQLVESGGGLVQAGGSHRLSCAASGSIFVYNAMGCYIQAPGKERELVAGITFIGGSTYYADSVKGRFTISRDNAKNTVYLQMNSLKPEDTAVYYCNADVAPGIFYGYDSWGQGTQVTVSS | low polyreactivity |
| QVQLQESGGGLVQAGGSLRLSCAASGYISHADEMGWYRQAPGKEHELVASISNGGSTNYADSVKGRFTIRRDNAKNTVYLQMNSLKSEDTAVYYCAAWTGQVDIHDSWGQRTQVTVSS | low polyreactivity |
| QVHLVESGGGLVQAGGSLRLSCAASGSTLVYNDMGWYRQAPGKEREFVAAIRSNDGSTYYADSVKGRFTISRDNAKNTVYLQMNSLKPEDTAVYYCAAERGYPKFGYWGQGTQVTVSS | low polyreactivity |
| HVQLEDSGGGLVQAGGRLRITCAASGRSSETNDMGWYRQAPGKERELVAAISSSGGSTYYADSVKGRFTISRDNAKNTVYLQMNSLQPEDTAVYYCYAVYYRTVLKIGVYEYDYWGQGTQVTVSS | low polyreactivity |
| QVQIVESGGGLVQAGGSLRLSCAASGSSFTLYALGWYRQAPGKERELVAAISWSTTSTYYADSVKGRFTISRDNAKNTVYLQMNSLKPEDTAVYYCNARHWPLAYEYWGQGTQVTVSS | high polyreactivity |
| QVQLVESGGGLVQAGGSLRLSCAASGLTFIINDMGWYRQAPGKERELVAGITNGGSTYADSVKGRFTISRDNAKNTVYLQMNCLKPEDTAVYYCAVPWYDFARSIQVDEYDYWGQGTQVTVSS | low polyreactivity |
| QDQLVESGGGLVQAGGSLRLSCAASGFTFYAYSMGWYRQAPGKERELVAAITYIGSTYYADSVKGRFTISRDNAKNTVYLQMNSLKPEDTAVYYCAAVKVFLGLGYDYWGQGTQVTVSS | low polyreactivity |
| QVQLVESGGGLVQAGGSLRLSCAASGFTFKRYAMGWYRQAPGKERELVAAISWSGGSTYYADSVKGRFTISRDNAKNTVYLQMNSLKPEDTAVYYCNAVCRFSTRREYWGQGTQVTVSS | high polyreactivity |
| QVQLVESGGGLVQAGGSLRLSCAASGSILSAYAMGWYRQAPGKERELVAAISWSGGSTYYADSVKGRFTISRDNAKNTVYLQMNSLKPEDTAVYYCATVNKKWRRYDYWGQGTQVTVSS | high polyreactivity |
| QVQLVESGGGFVQAGGSLRLSCAASGIIFEYYTMGWYRQAPGKERELVASINYDGDSTYYADSVKGRFTISRDNAKNTVYLQMNSLKPEDTAVYYCSAEFYYVYSSFGHYYWGQGTQVTVSS | low polyreactivity |
| QDQLVESGGGLVQTGGSLRLSCASSGLIFTYYALGWYRQAPGTERELVAANRGSYSSTYYADSVKGRFTISRDNAKNTVYLHMNSLKPEDTAVYYCAAKYYWGQGTQVTVSS | high polyreactivity |
| QVQLVESGGGLVQAGGSLRLSCAASGNTFYWNAMGWYRRAPGKERELVAAISTTGVSTYYADSVKGRFTISRDKAKNTVYLQMNSLKPEDTAVYFCAAEIIGYHTIYDYWGQGTQVTVSS | low polyreactivity |
| QVQLQESGGGLMQAGGSQRLSCAASGSITYYSDMGCYRQAPGKELEFVAAIGYGTTTNYADSVKGRFTTSRDNAKYTVYLQMISMKPEDTAVYYCAAYQGKGYEFYYWGQGTQVTVRS | low polyreactivity |
| QVQLVESGGGLVQAGGSLRLSCAASGRISGYYAMGWYRQAPGKEREFVAAITRSGGSTYYADSVKGRFTISRDNAKNTVYLQMNSLKPEDTAVYYCAADTRGFSYGNGYGYWGQGTQVTVSS | low polyreactivity |
